Data as given in patent US11931401B2, “Runx3 modified protein for prevention or treatment of cancer” (GeneCraft Inc., priority 2020, dated 2024).
Entries after “also recorded” stand apart in the source; their conditions may differ.

B1: S356A: Runx3 modified protein: 356th serine substituted with alanine (TCA→GCA) (protein)
chain: MRIPVDPSTSRRFTPPSPAFPCGGGGGKMGENSGALSAQAAVGPGGRARPEVRSMVDVLADHAGELVRTDSPNFLCSVLPSHWRCNKTLPVAFKVVALGDVPDGTVVTVMAGNDENYSAELRNASAVMKNQVARFNDLRFVGRSGRGKSFTLTITVFTNPTQVATYHRAIKVTVDGPREPRRHRQKLEDQTKPFPDRFGDLERLRMRVTPSTPSPRGSLSTTSHFSSQPQTPIQGTSELNPFSDPRQFDRSFPTLPTLTESRFPDPRMHYPGAMSAAFPYSATPSGTSISSLSVAGMPATSRFHHTYLPPPYPGAPQNQSGPFQANPSPYHLYYGTSSGSYQFSMVAGSSSGGDRAPTRMLASCTSSAASVAAGNLMNPSLGGQSDGVEADGSHSNSPTALSTPGRMDEAVWRPY
modifications: Myc tag; Runx3 isoform2 amino acid
B2: S356 wild type: Wild-type Runx3 (Runt-related transcription factor 3) protein, 356th serine not substituted; SEQ ID NO: 2 (protein)
chain: MRIPVDPSTSRRFTPPSPAFPCGGGGGKMGENSGALSAQAAVGPGGRARPEVRSMVDVLADHAGELVRTDSPNFLCSVLPSHWRCNKTLPVAFKVVALGDVPDGTVVTVMAGNDENYSAELRNASAVMKNQVARFNDLRFVGRSGRGKSFTLTITVFTNPTQVATYHRAIKVTVDGPREPRRHRQKLEDQTKPFPDRFGDLERLRMRVTPSTPSPRGSLSTTSHFSSQPQTPIQGTSELNPFSDPRQFDRSFPTLPTLTESRFPDPRMHYPGAMSAAFPYSATPSGTSISSLSVAGMPATSRFHHTYLPPPYPGAPQNQSGPFQANPSPYHLYYGTSSGSYQFSMVAGSSSGGDRSPTRMLASCTSSAASVAAGNLMNPSLGGQSDGVEADGSHSNSPTALSTPGRMDEAVWRPY
modifications: Runx3 isoform2 amino acid

Key:
[1] = system: pancreatic cancer cell lines; assay: Apoptosis by flow cytometry (FITC-Annexin V / propidium iodide), pancreatic cancer cell lines; type: cell-based; conditions: listed as modified protein in which the 356th serine of Runx3 is substituted with alanine
Method: (§1) Each cell line was cultured in a 10 cm culture dish (5×10^5 cells) for 2 days and then approximately 2×10^6 cells of each cell line was infected with 1×10^8 VP of adenovirus or adenovirus Runx3 or adenovirus Runx3 S356A. After 48 hours, the cell death rate was measured by flow cytometry.

[2] = system: stomach cancer cell lines; assay: Apoptosis by flow cytometry (FITC-Annexin V / propidium iodide), stomach cancer cell lines; type: cell-based; conditions: stomach (gastric) cancer cell lines; listed as modified protein in which the 356th serine of Runx3 is substituted with alanine
Method: as §1

[3] = system: lung cancer cell lines; assay: Apoptosis by flow cytometry (FITC-Annexin V / propidium iodide), lung cancer cell lines; type: cell-based
Method: as §1

[4] = target: T1, BRD2 (Homo sapiens, UniProt P25440); assay: Time for which Runx3 protein forms a complex with Brd2 protein (IP/IB); type: binding; conditions: for time for which physical binding / complex with BRD2 was maintained: IP/IB
T1 sequence (P25440 whole entry): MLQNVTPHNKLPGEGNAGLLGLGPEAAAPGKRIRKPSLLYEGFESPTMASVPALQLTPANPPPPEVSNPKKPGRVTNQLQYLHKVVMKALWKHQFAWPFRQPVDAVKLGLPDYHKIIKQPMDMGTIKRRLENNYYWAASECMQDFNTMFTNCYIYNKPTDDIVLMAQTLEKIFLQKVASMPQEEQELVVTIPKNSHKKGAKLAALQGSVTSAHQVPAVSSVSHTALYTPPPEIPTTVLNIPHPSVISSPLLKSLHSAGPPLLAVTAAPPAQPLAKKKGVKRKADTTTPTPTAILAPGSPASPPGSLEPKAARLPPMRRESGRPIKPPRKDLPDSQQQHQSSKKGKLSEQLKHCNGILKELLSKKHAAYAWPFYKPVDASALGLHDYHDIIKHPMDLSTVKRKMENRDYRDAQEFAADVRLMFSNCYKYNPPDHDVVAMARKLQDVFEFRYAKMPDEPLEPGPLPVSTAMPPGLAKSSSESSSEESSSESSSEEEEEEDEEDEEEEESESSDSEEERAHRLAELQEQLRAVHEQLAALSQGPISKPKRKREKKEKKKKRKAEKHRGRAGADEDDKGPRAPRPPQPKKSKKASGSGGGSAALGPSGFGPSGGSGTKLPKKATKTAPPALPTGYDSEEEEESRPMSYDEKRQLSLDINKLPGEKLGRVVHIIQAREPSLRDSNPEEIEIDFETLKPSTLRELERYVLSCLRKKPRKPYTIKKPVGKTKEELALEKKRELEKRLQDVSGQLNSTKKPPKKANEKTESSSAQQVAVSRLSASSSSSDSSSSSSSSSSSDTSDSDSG
Method: The modified protein in which the 356th amino acid of Runx3 is substituted with alanine blocks the physical binding between Runx3 and CDK4, thereby inhibiting the phosphorylation of the 356th serine of Runx3 by CDK4. By inhibiting the conversion of the Rpa-Rx3-AC complex including Runx3 to the Rpa-Rx3-TR complex, the function of maintaining the anticancer activity of Runx3 is improved. Thus, the following experiment was performed to compare the time for the modified protein in which the 356th amino acid of Runx3 is substituted with alanine to form a complex by binding to Brd2 protein with the wild-type Runx3.
Particularly, the antibody targeting RUNX3 (5G4) (Cat #ab40278) was obtained from Abcam (Cambridge, UK), and the antibody was diluted 1:3000. BRD2 (M01; 1:1000; Cat #H00006046-M01, Abnova, Taipei City, Taiwan) was used for immunoblotting and immunoprecipitation.

[5] = target: T1, BRD2; assay: Time-dependent BRD2-RUNX3 complex formation after serum stimulation by immunoprecipitation (IP) and immunoblotting (IB); type: binding; conditions: overexpressed Myc-tagged protein; FIG. 1
Method: The antibody targeting RUNX3 (5G4) (Cat #ab40278) was obtained from Abcam (Cambridge, UK), and the antibody was diluted 1:3000. BRD2 (M01; 1:1000; Cat #H00006046-M01, Abnova, Taipei City, Taiwan) was used for immunoblotting and immunoprecipitation.
RUNX3 phosphorylation in serine, the 356th amino acid of Runx3 protein, was measured by immunoprecipitation (IP) and immunoblotting (IB) in the same manner as described in Experimental Method 3 above.

Row | Molecule | cancer cell death efficacy compared to the wild-type Runx3 protein (in words) [1] | cancer cell death efficacy compared to the wild-type Runx3 protein (in words) [2] | cancer cell killing compared to the wild-type Runx3 protein (in words) [3] | increase of apoptosis rate compared to the wild-type Runx3 protein ([3]; flow cytometry) [times] | time for which physical binding / complex with BRD2 was maintained [4] | time for which binding with BRD2 was maintained after the serum stimulation [5] [h] | time after which the binding of Runx3 and BRD2 was separated ([4]; after the binding) [h]
1 | B1 | more effective in killing cancer cells; also recorded: further increased the cancer cell death efficacy | more effective in killing cancer cells; also recorded: further increased the cancer cell death efficacy | more effective in killing cancer cells | ≥ 2 | up to 40 hours | ≤ 8 | 
2 | B2 |  |  |  |  | up to 8 hours |  | 3
